Where no end group is shown, it is not given here.
Experiment: Corneal penetration of radioactive topical ocular indolicidin formulation
Format: in vivo, New Zealand White Rabbits
Experimental: The objective of this study was to determine the corneal penetration potential of a ^3H-labelled indolicidin molecule. The ^3H labeled L-indolicidin; L-IND was tested for corneal penetration using New Zealand White Rabbits (Western Oregon Rabbit Co.). The rabbit is one of the model species for the assessment of toxicity and is one of the species recommended for that purpose by toxicity testing guidelines of all regulatory agencies. See “Animal Models in the Evaluation of Chemotherapy of Ocular Infections” in Experimental Models in Antimicrobial Chemotherapy, Vol 1, p 187-211.
Administration of ^3H-L-IND was by epicomeal application into both eyes, 20 μL L-IND once hourly for six applications. The animals were euthanized immediately prior to harvesting of aqueous humor.
Male animals were initiated as young adults and weighed 2-3 kg. Two animals were assigned to the test (2/group; one treatment group). […]
Clinical signs were evaluated immediately after 1st dose administration and immediately prior to euthanasia and necroscopy. […]
Evaluations were confined to the eye. […] An estimate of the total volume of aqueous humor harvested was recorded and analyzed for ^3H content. […]
The two samples of aqueous humor from each of the rabbits were analyzed for their radioactivity levels. […]

Q: For “^3H-Indolicidin: ^3H-labelled indolicidin molecule for the corneal penetration study (ILPWKWPWWPWRR-NH2; also: tritium label; UniProt P33046 131-143, looked up)”, which “radioactivity level in aqueous humor” value (20 μL epicorneal, once hourly for six applications, both eyes) is on record?
A: equal to that of background counts

Q: And the corneal penetration (topical ocular, six applications)?
A: did not penetrate the cornea
